B1: NRC3_wobSeed74_DR3_T8C_o1 (dsDNA)
DNA 1: GCTCTAGCTGGTCACGGAGGTCACACACGACGGGTAGCGATTGACAGCGTAGAATGAAGG
DNA 2: CCTTCATTCTACGCTGTCAATCGCTACCCGTCGTGTGTGACCTCCGTGACCAGCTAGAGC
B2: NRC3_wobSeed88_DR3_C21T_o1 (dsDNA)
DNA 1: GCTAGCCTAGGTCATGCGGGTCAGTATAGTGTCGGCGCGATTGACAGCGTAGAATGAAGG
DNA 2: CCTTCATTCTACGCTGTCAATCGCGCCGACACTATACTGACCCGCATGACCTAGGCTAGC
B3: NRC3_wobSeed4_DR0_T8A_o1 (dsDNA)
DNA 1: GCCCTACAGGGCCAAGGTCATTGATCAGTCAAAGCAGCGATTGACAGCGTAGAATGAAGG
DNA 2: CCTTCATTCTACGCTGTCAATCGCTGCTTTGACTGATCAATGACCTTGGCCCTGTAGGGC
B4: NRC3_random_hg19_193_o1 (dsDNA)
DNA 1: GCTGGAAGATGAAGAAGAACTATTGCTCGATGGAGAGCGATTGACAGCGTAGAATGAAGG
DNA 2: CCTTCATTCTACGCTGTCAATCGCTCTCCATCGAGCAATAGTTCTTCTTCATCTTCCAGC
B5: NRC3_wobSeed114_DR4_C13G_o1 (dsDNA)
DNA 1: GCAATACAGGGTGATCGTAGGCCAGAGTACGCACAGGCGATTGACAGCGTAGAATGAAGG
DNA 2: CCTTCATTCTACGCTGTCAATCGCCTGTGCGTACTCTGGCCTACGATCACCCTGTATTGC
B6: NRC3_random_hg19_65_o1 (dsDNA)
DNA 1: GCATGGTGATGAAAGCAAAGGAGTAATGTTTCTGTGGCGATTGACAGCGTAGAATGAAGG
DNA 2: CCTTCATTCTACGCTGTCAATCGCCACAGAAACATTACTCCTTTGCTTTCATCACCATGC
B7: NRC3_random_hg19_472_o1 (dsDNA)
DNA 1: GCTGATGGGCTTCAAGTTGCTAACCCAGGAAATGGAGCGATTGACAGCGTAGAATGAAGG
DNA 2: CCTTCATTCTACGCTGTCAATCGCTCCATTTCCTGGGTTAGCAACTTGAAGCCCATCAGC
B8: NRC3_random_hg19_86_o1 (dsDNA)
DNA 1: GCAAACAAGGAGGAGAGGTGTTCTGGAGAACTGCTTGCGATTGACAGCGTAGAATGAAGG
DNA 2: CCTTCATTCTACGCTGTCAATCGCAAGCAGTTCTCCAGAACACCTCTCCTCCTTGTTTGC
B9: NRC3_wobSeed82_DR3_T25A_o1 (dsDNA)
DNA 1: GCATCGAAAGGTCGACGAGGTGAGAATACACCGTTTGCGATTGACAGCGTAGAATGAAGG
DNA 2: CCTTCATTCTACGCTGTCAATCGCAAACGGTGTATTCTCACCTCGTCGACCTTTCGATGC
B10: NRC3_random_hg19_39_o1 (dsDNA)
DNA 1: GCGGGCAACTCGTTCGACTCAGGGAGCTATGGGTAGGCGATTGACAGCGTAGAATGAAGG
DNA 2: CCTTCATTCTACGCTGTCAATCGCCTACCCATAGCTCCCTGAGTCGAACGAGTTGCCCGC
B11: NRC3_wobSeed5_DR0_G23C_o1 (dsDNA)
DNA 1: GCCCTTACGGGTCAAGGTTATACCACGGGTGGTACGGCGATTGACAGCGTAGAATGAAGG
DNA 2: CCTTCATTCTACGCTGTCAATCGCCGTACCACCCGTGGTATAACCTTGACCCGTAAGGGC
B12: NRC3_wobSeed118_DR4_G15A_o1 (dsDNA)
DNA 1: GCTTACCAAGGTGAACTGAGGTCGTTGATCCAACTCGCGATTGACAGCGTAGAATGAAGG
DNA 2: CCTTCATTCTACGCTGTCAATCGCGAGTTGGATCAACGACCTCAGTTCACCTTGGTAAGC
B13: NRC3_wobSeed21_DR0_C21A_o1 (dsDNA)
DNA 1: GCCGTCAAAGTTCAAGGTAAAGTAACAGAAAGCAGCGCGATTGACAGCGTAGAATGAAGG
DNA 2: CCTTCATTCTACGCTGTCAATCGCGCTGCTTTCTGTTACTTTACCTTGAACTTTGACGGC
B14: NRC3_wobSeed21_DR0_C13A_o1 (dsDNA)
DNA 1: GCCGTCAAAGTTAAAGGTAACGTAACAGAAAGCAGCGCGATTGACAGCGTAGAATGAAGG
DNA 2: CCTTCATTCTACGCTGTCAATCGCGCTGCTTTCTGTTACGTTACCTTTAACTTTGACGGC
B15: NRC3_random_hg19_61_o1 (dsDNA)
DNA 1: GCGCAGAGGTTGCAATGAGCCAAGATTGTACCACTGGCGATTGACAGCGTAGAATGAAGG
DNA 2: CCTTCATTCTACGCTGTCAATCGCCAGTGGTACAATCTTGGCTCATTGCAACCTCTGCGC
B16: NRC3_random_hg19_71_o1 (dsDNA)
DNA 1: GCCATGTCACCTCCCTGAGGTGCAGTTTGCTTCAAGGCGATTGACAGCGTAGAATGAAGG
DNA 2: CCTTCATTCTACGCTGTCAATCGCCTTGAAGCAAACTGCACCTCAGGGAGGTGACATGGC
B17: NRC3_random_hg19_405_o1 (dsDNA)
DNA 1: GCAGCGCACCAGCATGGCACATGTATACATATGTAAGCGATTGACAGCGTAGAATGAAGG
DNA 2: CCTTCATTCTACGCTGTCAATCGCTTACATATGTATACATGTGCCATGCTGGTGCGCTGC
B18: NRC3_wobSeed53_DR2_C13A_o1 (dsDNA)
DNA 1: GCCCTTACGGGTAACGAGGTTATAGCACGACGAGCGGCGATTGACAGCGTAGAATGAAGG
DNA 2: CCTTCATTCTACGCTGTCAATCGCCGCTCGTCGTGCTATAACCTCGTTACCCGTAAGGGC
B19: NRC3_wobSeed70_DR2_o1 (dsDNA)
DNA 1: GCGTACCAAGGTGAATAGGTCGTTGATGAGTAGGCGGCGATTGACAGCGTAGAATGAAGG
DNA 2: CCTTCATTCTACGCTGTCAATCGCCGCCTACTCATCAACGACCTATTCACCTTGGTACGC
B20: NRC3_wobSeed27_DR1_C20G_o1 (dsDNA)
DNA 1: GCACTCGGAGGACAAAGGTGAGAGCTACGCCAGTGAGCGATTGACAGCGTAGAATGAAGG
DNA 2: CCTTCATTCTACGCTGTCAATCGCTCACTGGCGTAGCTCTCACCTTTGTCCTCCGAGTGC
B21: NRC3_wobSeed27_DR1_C20A_o1 (dsDNA)
DNA 1: GCACTCGGAGGACAAAGGTAAGAGCTACGCCAGTGAGCGATTGACAGCGTAGAATGAAGG
DNA 2: CCTTCATTCTACGCTGTCAATCGCTCACTGGCGTAGCTCTTACCTTTGTCCTCCGAGTGC
B22: NRC3_wobSeed116_DR4_C15G_o1 (dsDNA)
DNA 1: GCAGAATGAGGTTAGCAAAGATCAGGGAAACGCTTGGCGATTGACAGCGTAGAATGAAGG
DNA 2: CCTTCATTCTACGCTGTCAATCGCCAAGCGTTTCCCTGATCTTTGCTAACCTCATTCTGC
B23: NRC3_wobSeed42_DR1_G11A_o1 (dsDNA)
DNA 1: GCTATACAGGATCAAAGGCCAGAGTACGAATGTCGAGCGATTGACAGCGTAGAATGAAGG
DNA 2: CCTTCATTCTACGCTGTCAATCGCTCGACATTCGTACTCTGGCCTTTGATCCTGTATAGC
B24: NRC3_random_hg19_477_o1 (dsDNA)
DNA 1: GCAACAAACTTCCTTGCTCTAGTTCATCAGCAATGAGCGATTGACAGCGTAGAATGAAGG
DNA 2: CCTTCATTCTACGCTGTCAATCGCTCATTGCTGATGAACTAGAGCAAGGAAGTTTGTTGC
B25: NRC3_wobSeed50_DR2_G18A_o1 (dsDNA)
DNA 1: GCCCTAGTTGGTCAGGAAGTCACACACCGGATATGAGCGATTGACAGCGTAGAATGAAGG
DNA 2: CCTTCATTCTACGCTGTCAATCGCTCATATCCGGTGTGTGACTTCCTGACCAACTAGGGC
B26: NRC3_wobSeed133_DR5_C13A_o1 (dsDNA)
DNA 1: GCCGTCCAAGGTAAATGCTAGGTCAGTGAAAGCATTGCGATTGACAGCGTAGAATGAAGG
DNA 2: CCTTCATTCTACGCTGTCAATCGCAATGCTTTCACTGACCTAGCATTTACCTTGGACGGC
B27: NRC3_wobSeed133_DR5_T12G_o1 (dsDNA)
DNA 1: GCCGTCCAAGGGCAATGCTAGGTCAGTGAAAGCATTGCGATTGACAGCGTAGAATGAAGG
DNA 2: CCTTCATTCTACGCTGTCAATCGCAATGCTTTCACTGACCTAGCATTGCCCTTGGACGGC
B28: NRC3_wobSeed113_DR4_G20A_o1 (dsDNA)
DNA 1: GCATATGTAGGTTAGCTGGAGTCATTCAGACTAGGCGCGATTGACAGCGTAGAATGAAGG
DNA 2: CCTTCATTCTACGCTGTCAATCGCGCCTAGTCTGAATGACTCCAGCTAACCTACATATGC
B29: NRC3_wobSeed136_DR5_A9C_o1 (dsDNA)
DNA 1: GCTAGCCTCGGTCATTCAGGGGCCAGTATAGAAAGCGCGATTGACAGCGTAGAATGAAGG
DNA 2: CCTTCATTCTACGCTGTCAATCGCGCTTTCTATACTGGCCCCTGAATGACCGAGGCTAGC
B30: NRC3_wobSeed58_DR2_T26C_o1 (dsDNA)
DNA 1: GCATCGAAAGGTCGTGAGGTGAGTACACAGAAAGGCGCGATTGACAGCGTAGAATGAAGG
DNA 2: CCTTCATTCTACGCTGTCAATCGCGCCTTTCTGTGTACTCACCTCACGACCTTTCGATGC
B31: NRC3_wobSeed58_DR2_G18A_o1 (dsDNA)
DNA 1: GCATCGAAAGGTCGTGAAGTGAGTATACAGAAAGGCGCGATTGACAGCGTAGAATGAAGG
DNA 2: CCTTCATTCTACGCTGTCAATCGCGCCTTTCTGTATACTCACTTCACGACCTTTCGATGC
B32: NRC3_wobSeed2_DR0_A20C_o1 (dsDNA)
DNA 1: GCCCTAGTTGGTCAAGGTCCCACACGCTATAGGTACGCGATTGACAGCGTAGAATGAAGG
DNA 2: CCTTCATTCTACGCTGTCAATCGCGTACCTATAGCGTGTGGGACCTTGACCAACTAGGGC
B33: NRC3_wobSeed100_DR4_C23G_o1 (dsDNA)
DNA 1: GCCCTACTGGGCCACGAAAGGTGATTGATTCAGTGAGCGATTGACAGCGTAGAATGAAGG
DNA 2: CCTTCATTCTACGCTGTCAATCGCTCACTGAATCAATCACCTTTCGTGGCCCAGTAGGGC

target: LXRb:RXRa (Homo sapiens, UniProt P55055;P19793 full;full); assay: no ligand; PBM; 270 nM : 90 nM RXRa; PBS pH 7.4, 2% milk, 0.02% Triton X-100, 1 mM DTT, BSA, 0.4 mg/ml salmon testes DNA; conditions: tags: His kept;His cleaved; copies: 1;1; label: surface-attached array probe
Sequence (P55055 whole entry, chain 1 of 2): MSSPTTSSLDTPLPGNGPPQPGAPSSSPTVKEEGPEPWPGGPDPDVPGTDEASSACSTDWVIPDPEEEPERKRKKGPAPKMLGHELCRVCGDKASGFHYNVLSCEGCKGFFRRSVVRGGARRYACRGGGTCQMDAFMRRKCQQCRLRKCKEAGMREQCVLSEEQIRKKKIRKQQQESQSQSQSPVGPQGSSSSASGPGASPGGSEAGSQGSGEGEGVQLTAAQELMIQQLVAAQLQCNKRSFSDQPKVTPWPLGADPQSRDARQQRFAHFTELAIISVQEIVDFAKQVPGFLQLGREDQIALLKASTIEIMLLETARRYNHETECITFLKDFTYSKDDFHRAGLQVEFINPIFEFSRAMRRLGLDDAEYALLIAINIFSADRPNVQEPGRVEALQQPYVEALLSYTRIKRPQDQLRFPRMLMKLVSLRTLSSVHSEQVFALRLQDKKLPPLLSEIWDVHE
Sequence (P19793 whole entry, chain 2 of 2): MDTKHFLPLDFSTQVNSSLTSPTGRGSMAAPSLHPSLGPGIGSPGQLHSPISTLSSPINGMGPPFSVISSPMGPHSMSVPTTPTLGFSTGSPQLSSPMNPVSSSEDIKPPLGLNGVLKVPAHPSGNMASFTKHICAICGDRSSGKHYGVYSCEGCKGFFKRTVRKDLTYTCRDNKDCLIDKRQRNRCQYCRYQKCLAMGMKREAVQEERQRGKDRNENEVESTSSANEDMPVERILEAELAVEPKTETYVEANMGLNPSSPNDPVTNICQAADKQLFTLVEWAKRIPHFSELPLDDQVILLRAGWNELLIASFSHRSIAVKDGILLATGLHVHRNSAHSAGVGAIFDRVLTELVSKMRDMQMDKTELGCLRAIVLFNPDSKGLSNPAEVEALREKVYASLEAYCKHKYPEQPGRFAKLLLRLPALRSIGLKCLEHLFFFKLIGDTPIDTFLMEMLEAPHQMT
In short: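 Binding z-scores were set against random background probes. The data came from custom Agilent 4×180K protein-binding microarrays carrying double-stranded probes with 34-nt variable regions, incubated 1 h with ligand-free nuclear receptor dimers. Partner-specific antibodies detected binding, and scanned fluorescence was regression-normalized.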

| Binder | binding signal |
| --- | --- |
| B1 | 3.16 PBM z-score against 500 random probes |
| B2 | 3 PBM z-score against 500 random probes |
| B3 | 3.02 PBM z-score against 500 random probes |
| B4 | -0.54 PBM z-score against 500 random probes |
| B5 | 0.1 PBM z-score against 500 random probes |
| B6 | 0.22 PBM z-score against 500 random probes |
| B7 | -0.26 PBM z-score against 500 random probes |
| B8 | 0.18 PBM z-score against 500 random probes |
| B9 | 3.13 PBM z-score against 500 random probes |
| B10 | -0.61 PBM z-score against 500 random probes |
| B11 | 3.06 PBM z-score against 500 random probes |
| B12 | 3.08 PBM z-score against 500 random probes |
| B13 | 3.04 PBM z-score against 500 random probes |
| B14 | 0.26 PBM z-score against 500 random probes |
| B15 | -0.15 PBM z-score against 500 random probes |
| B16 | 0.34 PBM z-score against 500 random probes |
| B17 | -0.44 PBM z-score against 500 random probes |

| Binder | binding signal |
| --- | --- |
| B18 | 0.41 PBM z-score against 500 random probes |
| B19 | 0.5 PBM z-score against 500 random probes |
| B20 | 0.32 PBM z-score against 500 random probes |
| B21 | -0.49 PBM z-score against 500 random probes |
| B22 | 0.41 PBM z-score against 500 random probes |
| B23 | 0.47 PBM z-score against 500 random probes |
| B24 | 0.49 PBM z-score against 500 random probes |
| B25 | 0.38 PBM z-score against 500 random probes |
| B26 | 0.46 PBM z-score against 500 random probes |
| B27 | 0.44 PBM z-score against 500 random probes |
| B28 | 0.16 PBM z-score against 500 random probes |
| B29 | 0.42 PBM z-score against 500 random probes |
| B30 | 3.15 PBM z-score against 500 random probes |
| B31 | 3.09 PBM z-score against 500 random probes |
| B32 | 0.48 PBM z-score against 500 random probes |
| B33 | -0.2 PBM z-score against 500 random probes |

— article PMC6555819, “Comprehensive study of nuclear receptor DNA binding provides a revised framework for understanding receptor specificity”
